Like-named read-outs stand apart in the source and are kept apart here. Values belong to the molecule of their own block, whether it stands above or below them. Residues, ends and D or L forms follow the SMILES beside them.
Legend:
[1] = target: T1, SapA/POPS empty nanoparticles (Homo sapiens, UniProt P07602); assay: MST control for unspecific peptide binding to empty SapA/POPS nanoparticles
T1 construct: saposin A (residues 60 to 140); made in house; host or cells: E. coli Rosetta gami-2 (DE3)
T1 sequence (P07602 60-140): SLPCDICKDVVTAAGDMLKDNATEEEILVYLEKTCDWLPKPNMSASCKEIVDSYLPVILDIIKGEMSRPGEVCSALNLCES
Excerpt: (§1) The samples were loaded in standard glass capillaries. […] Empty SapNPs were used as control measurements.

PepTSt = conditions: MST, 20 °C
Experimental: PepTSt and PepTSo2 di and tripeptide binding in solution was measured by MST with the Monolith NT.LabelFree (NanoTemper technologies). The proteins were kept at a constant concentration of ∼125 nM and were combined with a series of 16 different peptide concentrations. For DDM- and SapNP-solubilized proteins, the ligands were diluted in DDM buffer (20 mM Tris pH 7.5, 150 mM NaCl, 5 % glycerol, and 0.03 % DDM) and in 1 × PBS, respectively. The thermophoretic movement of the proteins, alone and in complex with different peptides, was monitored and quantified using time-dependent intrinsic tryptophan fluorescence. The samples were loaded in standard glass capillaries. Data were acquired at 20 °C, the LED power was set to 20 %, and the MST power to 20 % and 40 %. The dissociation constant (KD) values were derived from the nonlinear fitting of the normalized fluorescence signal at different ligand concentrations using the NT analysis software. Empty SapNPs were used as control measurements.

[2] = target: peptide transporter PepTSt from Streptococcus thermophilus (Streptococcus thermophilus) (UniProt Q5M4H8); assay: MST; label-free (intrinsic tryptophan fluorescence), DDM-solubilised transporter at ~125 nM, 16 peptide concentrations, 20 mM Tris pH 7.5, 150 mM NaCl, 5 % glycerol, 0.03 % DDM, 20 °C
[3] = target: peptide transporter PepTSt from Streptococcus thermophilus (Streptococcus thermophilus) (UniProt Q5M4H8); assay: MST; label-free, transporter reconstituted in SapA/BL (brain total lipid extract) nanoparticles at ~125 nM, 16 peptide concentrations, 1x PBS, 20 °C
[4] = target: peptide transporter PepTSt from Streptococcus thermophilus (Streptococcus thermophilus) (UniProt Q5M4H8); assay: MST; label-free, transporter reconstituted in SapA/POPS nanoparticles at ~125 nM, 16 peptide concentrations, 1x PBS, 20 °C
PepTSo2 = target: T2, PepTSo2 (Shewanella oneidensis, UniProt Q8EHE6); assay: MST di-/tripeptide binding in solution to PepTSo2; conditions: 20 °C
T2 sequence (Q8EHE6 1-516): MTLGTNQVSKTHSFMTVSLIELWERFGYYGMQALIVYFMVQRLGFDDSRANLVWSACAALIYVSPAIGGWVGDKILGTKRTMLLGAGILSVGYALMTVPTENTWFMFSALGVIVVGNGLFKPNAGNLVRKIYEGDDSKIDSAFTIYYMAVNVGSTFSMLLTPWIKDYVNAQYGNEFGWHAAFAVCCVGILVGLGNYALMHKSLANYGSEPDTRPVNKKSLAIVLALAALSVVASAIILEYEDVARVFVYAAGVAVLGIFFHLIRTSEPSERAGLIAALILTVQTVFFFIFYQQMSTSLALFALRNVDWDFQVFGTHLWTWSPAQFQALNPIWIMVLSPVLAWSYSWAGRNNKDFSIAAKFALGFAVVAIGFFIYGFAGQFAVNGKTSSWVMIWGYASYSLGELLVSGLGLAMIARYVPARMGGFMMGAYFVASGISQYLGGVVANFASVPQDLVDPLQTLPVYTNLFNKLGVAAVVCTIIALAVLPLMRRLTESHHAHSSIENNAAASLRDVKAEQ
Excerpt: as §1

[5] = target: small-conductance mechanosensitive channel T2 from Thermoplasma volcanium (Thermoplasma volcanium); assay: SEC-MALS; triple-detection SEC conjugate analysis (UV, refractive index, multi-angle light scattering); 60 uL T2 at 5 mg/mL on SD200 10/300 in 20 mM Tris pH 7.5, 150 mM NaCl, 5 % glycerol, 0.03 % DDM
[6] = Protein thermal unfolding by dye-free nanoDSF; format: physicochemical; conditions: purified protein alone, 20 to 95 °C
Experimental: The stability of the different DDM-solubilized or SapNP-reconstituted proteins was followed using a nanoDSF (Prometheus NT.48 form NanoTemper Technologies, GmbH). The dye-free proteins were excited at 280 nm and their intrinsic fluorescence at 350 and 330 nm were measured as a function of temperature to monitor the fluorescence changes upon heat unfolding. 10 μL of protein solution at a concentration of 0.5 mg/mL were loaded in a glass capillary, and the unfolding was measured in duplicates at a heating rate of 1 °C/min between 20 and 95 °C. The first derivative of the unfolding curves (350/330 nm ratio) was used to determine the transition midpoint (Tm).

[7] = parameters: method as in Frauenfeld et al., 2016; conditions: ref Frauenfeld et al., 2016, cited from earlier work

Molecule: CC(C)C[C@H](N)C(=O)N[C@@H](C)C(=O)O [Leu-Ala] (H-Leu-Ala-OH; N-terminus and C-terminus assumed)
- unspecific peptide binding [1]: no unspecific peptide binding
- Kd (PepTSt; PepTSt in DDM): 16.6 ± 3.6 mM
- Kd (PepTSt; PepTSt in SapA/BL): 16.4 ± 3.6 mM
- Kd (PepTSt; PepTSt in SapA/POPS): 5.49 ± 1 mM

- Kd [2]: 16.6 mM
- Kd [3]: 16.4 mM
- Kd [4]: 5.49 mM
Molecule: dipeptide Leu-Ala

- Kd (PepTSo2; PepTSo2 in DDM): 3.4 ± 1.3 mM
- Kd (PepTSo2; PepTSo2 reconstituted in SapA/BL): 5 ± 3 mM
Molecule: C[C@H](N)C(=O)N[C@@H](Cc1ccccc1)C(=O)N[C@@H](C)C(=O)O [Ala-Phe-Ala] (H-Ala-Phe-Ala-OH; N-terminus and C-terminus assumed)

- stoichiometry N [5]: 7
Molecule: small-conductance mechanosensitive channel T2 from Thermoplasma volcanium (natural protein)

B1: saposin A: human saposin A, Prosaposin residues 60 to 140, recombinant (protein)
chain: T1 sequence (P07602 60-140)
modifications: left off: His6, N-terminal, cleaved
notes: human saposin A, Prosaposin residues 60 to 140, recombinant
- unfolding transition [6]: does not show an unfolding transition

B2: PepTSo2: peptide transporter from Shewanella oneidensis (protein)
chain: T2 sequence (Q8EHE6 1-516)
- Tm ([7]; encapsulated in SapA/BL nanoparticles): 72 °C
- Tm ([7]; in the detergent nonyl-β-D-maltopyranoside): 43 °C

From publication PMC5807053, “Saposin Lipid Nanoparticles: A Highly Versatile and Modular Tool for Membrane Protein Research” (Structure(London, England:1993), 2018)
